Experimental findings from publication PMC3592575 are described below.

The experiment addresses α-synuclein (α-syn) (UniProt P37840). In words: self-assembly into fibrils: ThT, monomer filtration, TEM. The note with it: reference: unphosphorylated WT α-syn (semisynthetic and recombinant); sites Y125.

“α-synuclein (α-syn) (from UniProt P37840) semisynthetic pY125 α-syn”: the “binding against the reference” value is on record as “same”.
